Experimental data from US10676527B2, “Methods and compositions for modulation of blood-neural barrier” (Ludwig Institute for Cancer Research Ltd, priority 2006, dated 2020).

B1: tPA: wild type murine tissue-type plasminogen activator, serine protease thrombolytic agent (protein, UniProt P11214 33-559, looked up)
Tissue-type plasminogen …: SYRATCRDEPTQTTYQQHQSWLRPMLRSSRVEYCRCNSGLVQCHSVPVRSCSEPRCFNGGTCQQALYFSDFVCQCPDGFVGKRCDIDTRATCFEEQGITYRGTWSTAESGAECINWNSSVLSLKPYNARRPNAIKLGLGNHNYCRNPDRDLKPWCYVFKAGKYTTEFCSTPACPKGKSEDCYVGKGVTYRGTHSLTTSQASCLPWNSIVLMGKSYTAWRTNSQALGLGRHNYCRNPDGDARPWCHVMKDRKLTWEYCDMSPCSTCGLRQYKRPQFRIKGGLYTDITSHPWQAAIFVKNKRSPGERFLCGGVLISSCWVLSAAHCFLERFPPNHLKVVLGRTYRVVPGEEEQTFEIEKYIVHEEFDDDTYDNDIALLQLRSQSKQCAQESSSVGTACLPDPNLQLPDWTECELSGYGKHEASSPFFSDRLKEAHVRLYPSSRCTSQHLFNKTVTNNMLCAGDTRSGGNQDLHDACQGDSGGPLVCMINKQMTLTGIISWGLGCGQKDVPGVYTKVTNYLDWIHDNMKQ
B2: PDGF-BB: active platelet-derived growth factor BB dimer (from Preprotech Inc.) (protein, UniProt P01127 82-190, looked up)
Platelet-derived growth …: SLGSLTIAEPAMIAECKTRTEVFEISRRLIDRTNANFLVWPPCVEVQRCSGCCNNRNVQCRPTQVQLRPVQVRKIEIVRKKPIFKKATVTLEDHLACKCETVAAARPVT

How the values were obtained:
BBB = assay: Evans Blue extravasation (BBB opening) after intraventricular injection; assay type: in vivo; conditions: C57BL6 mice, 2 μl intraventricular, 3 μM, 1 hour after injection
Protocol: (§1) Wild type C57BL6 mice (10 Week old) were injected intraventricularly into the dorsal third ventricle with 2 μl of PBS, active PDGF-AA, PDGF-BB (both from Preprotech Inc.) and PDGF-CC (see below) (3 μM). Evans Blue was given intravenously immediately after the injection. One hour after the injection, the animals were perfused with PBS and the brain tissue was removed and processed for Evans Blue extravasation.
as §1, with “of either” for “of”, “PBS, wild type murine tPA (3 μM),” for “PBS,”, “active” for “active PDGF-AA, PDGF-BB (both from Preprotech Inc.) and”, “(3 μM), or wild type murine tPA (3 μM) plus active PDGF-CC” for “(see below)”
Wt C57BL6 mice (10 Week old) were injected intraventricularly with 3 μl of either PBS, wild type murine tPA (3 μM), wild type murine tPA (3 μM) with rabbit anti-PDGF-CC (150 μg/ml). Evans Blue was given intravenously immediately after the injection. One hour after the injection, the animals were perfused with PBS and the brain tissue was removed and processed for Evans Blue extravasation.

cerebral vessels = assay: electron microscopy of cerebral vessels after intraventricular injection (edema); assay type: in vivo; conditions: mice, 2 μL at 1 μM intraventricular, 1 hour after injection, cortex
Protocol: Electron microscopy of vessels in the brain from mice treated by intraventricular injection 1 hour prior to analysis. Panel A, PBS; panel B, tPA (2 μL at a concentration of a 1 μM); panels C and D PDGF-CC (3 μL at a concentration of a 1 μM). Panels B-D show arterioles surrounded by fluid-filled spaces indicative of developing edema. The approximate magnification is indicated on each panel.
Specifically, tPA or active PDGF-CC (2 μL each at a concentration a 1 μM) were injected intraventricularly into mice, and morphological analysis of the cerebrovascular structure was performed. PBS was used as control. […] FIGS. 5B-D show arterioles surrounded by fluid-filled spaces indicative of developing edema. The approximate magnification is indicated on each panel.

Molecule	opening of the BBB (Evans Blue extravasation) (BBB; Example 3, FIG. 3)	edema formation around cerebral vessels (transmission electron micrographs) (cerebral vessels)	vascular permeability / opening of the BBB (Evans Blue extravasation) (BBB; Example 1, FIG. 1)
B1	potent inducers of opening of the BBB	induce areas of fluid accumulation surrounding the vessels	
B2			induce increased vascular permeability
